We go through ten molecules from publication PMC8214142 (The Biochemical journal, 2021).

B1: Biotinyl-(GGS)3MLL3Win-NH2 (peptide)
peptide: Biotin-GGSGGSGGSVNPTGCARSEPKMS-NH2
SMILES: CSCC[C@H](NC(=O)[C@H](CCCCN)NC(=O)[C@@H]1CCCN1C(=O)[C@H](CCC(=O)O)NC(=O)[C@H](CO)NC(=O)[C@H](CCCNC(=N)N)NC(=O)[C@H](C)NC(=O)[C@H](CS)NC(=O)CNC(=O)[C@@H](NC(=O)[C@@H]1CCCN1C(=O)[C@H](CC(N)=O)NC(=O)[C@@H](NC(=O)[C@H](CO)NC(=O)CNC(=O)CNC(=O)[C@H](CO)NC(=O)CNC(=O)CNC(=O)[C@H](CO)NC(=O)CNC(=O)CNC(=O)CCCC[C@@H]1SC[C@@H]2NC(=O)N[C@@H]21)C(C)C)[C@@H](C)O)C(=O)N[C@@H](CO)C(N)=O
B2: Biotinyl-(GGS)3SETd1AWin-NH2 (peptide)
peptide: Biotin-GGSGGSGGSEHQTGSARSEGYYP-NH2
SMILES: C[C@H](NC(=O)[C@H](CO)NC(=O)CNC(=O)[C@@H](NC(=O)[C@H](CCC(N)=O)NC(=O)[C@H](Cc1c[nH]cn1)NC(=O)[C@H](CCC(=O)O)NC(=O)[C@H](CO)NC(=O)CNC(=O)CNC(=O)[C@H](CO)NC(=O)CNC(=O)CNC(=O)[C@H](CO)NC(=O)CNC(=O)CNC(=O)CCCC[C@@H]1SC[C@@H]2NC(=O)N[C@@H]21)[C@@H](C)O)C(=O)N[C@@H](CCCNC(=N)N)C(=O)N[C@@H](CO)C(=O)N[C@@H](CCC(=O)O)C(=O)NCC(=O)N[C@@H](Cc1ccc(O)cc1)C(=O)N[C@@H](Cc1ccc(O)cc1)C(=O)N1CCC[C@H]1C(N)=O
B3: Biotinyl-(GGS)3MLL2Win-NH2 (peptide)
peptide: Biotin-GGSGGSGGSINPTGCARSEPKIL-NH2
SMILES: CC[C@H](C)[C@H](NC(=O)[C@H](CCCCN)NC(=O)[C@@H]1CCCN1C(=O)[C@H](CCC(=O)O)NC(=O)[C@H](CO)NC(=O)[C@H](CCCNC(=N)N)NC(=O)[C@H](C)NC(=O)[C@H](CS)NC(=O)CNC(=O)[C@@H](NC(=O)[C@@H]1CCCN1C(=O)[C@H](CC(N)=O)NC(=O)[C@@H](NC(=O)[C@H](CO)NC(=O)CNC(=O)CNC(=O)[C@H](CO)NC(=O)CNC(=O)CNC(=O)[C@H](CO)NC(=O)CNC(=O)CNC(=O)CCCC[C@@H]1SC[C@@H]2NC(=O)N[C@@H]21)[C@@H](C)CC)[C@@H](C)O)C(=O)N[C@@H](CC(C)C)C(N)=O
B4: Biotinyl-(GGS)3MLL4Win-NH2 (peptide)
peptide: Biotin-GGSGGSGGSLNPHGAARAEVYLS-NH2
SMILES: CC(C)C[C@H](NC(=O)[C@H](Cc1ccc(O)cc1)NC(=O)[C@@H](NC(=O)[C@H](CCC(=O)O)NC(=O)[C@H](C)NC(=O)[C@H](CCCNC(=N)N)NC(=O)[C@H](C)NC(=O)[C@H](C)NC(=O)CNC(=O)[C@H](Cc1c[nH]cn1)NC(=O)[C@@H]1CCCN1C(=O)[C@H](CC(N)=O)NC(=O)[C@H](CC(C)C)NC(=O)[C@H](CO)NC(=O)CNC(=O)CNC(=O)[C@H](CO)NC(=O)CNC(=O)CNC(=O)[C@H](CO)NC(=O)CNC(=O)CNC(=O)CCCC[C@@H]1SC[C@@H]2NC(=O)N[C@@H]21)C(C)C)C(=O)N[C@@H](CO)C(N)=O
B5: Biotinyl-(GGS)3SETd1BWin-NH2 (peptide)
peptide: Biotin-GGSGGSGGSEHVTGCARSEGFYT-NH2
SMILES: CC(C)[C@H](NC(=O)[C@H](Cc1c[nH]cn1)NC(=O)[C@H](CCC(=O)O)NC(=O)[C@H](CO)NC(=O)CNC(=O)CNC(=O)[C@H](CO)NC(=O)CNC(=O)CNC(=O)[C@H](CO)NC(=O)CNC(=O)CNC(=O)CCCC[C@@H]1SC[C@@H]2NC(=O)N[C@@H]21)C(=O)N[C@H](C(=O)NCC(=O)N[C@@H](CS)C(=O)N[C@@H](C)C(=O)N[C@@H](CCCNC(=N)N)C(=O)N[C@@H](CO)C(=O)N[C@@H](CCC(=O)O)C(=O)NCC(=O)N[C@@H](Cc1ccccc1)C(=O)N[C@@H](Cc1ccc(O)cc1)C(=O)N[C@H](C(N)=O)[C@@H](C)O)[C@@H](C)O

* marks the point of attachment. Biotin = O=C1N[C@H]2[C@H](CS[C@H]2CCCCC(=O)*)N1

The first test has as its target T1, WD40 repeat protein 5 (WDR5), human (human, UniProt P61964 1-334). As to the kind of experiment: BLI.
Consider B1, for which the Kd is 100 nM, the koff was determined as 0.0053 s⁻¹ and the kon was found to be 54000 M⁻¹ s⁻¹.
In the same order, the values of B2 are 620 nM, 0.051 s⁻¹ and 82000 M⁻¹ s⁻¹.
In the same order, the values of B3 are 170 nM, 0.0077 s⁻¹ and 44000 M⁻¹ s⁻¹.
In the same order, the values of B4 are 1700 nM, 0.039 s⁻¹ and 23000 M⁻¹ s⁻¹.
With B5, the Kd was found to be 250 nM, the koff was found to be 0.017 s⁻¹ and the kon came to 71000 M⁻¹ s⁻¹.

For the next test, the target named is T1, WD40 repeat protein 5 (WDR5), human. Briefly: SPR.
{sulforhodamine B}-GGSGGSGGSVNPTGCARSEPKMS-NH2 [Sulforhodamine B-(GGS)3MLL3Win-NH2] showed a koff of 0.009 s⁻¹ and a kon of 490000 M⁻¹ s⁻¹.
In the same order, the values of {sulforhodamine B}-GGSGGSGGSEHQTGSARSEGYYP-NH2 [Sulforhodamine B-(GGS)3SETd1AWin-NH2] are 0.11 s⁻¹ and 310000 M⁻¹ s⁻¹.
For {sulforhodamine B}-GGSGGSGGSINPTGCARSEPKIL-NH2 [Sulforhodamine B-(GGS)3MLL2Win-NH2], in that order: 0.012 s⁻¹ and 370000 M⁻¹ s⁻¹.
For {sulforhodamine B}-GGSGGSGGSEHVTGCARSEGFYT-NH2 [Sulforhodamine B-(GGS)3SETd1BWin-NH2], in that order: 0.024 s⁻¹ and 340000 M⁻¹ s⁻¹.
{sulforhodamine B}-GGSGGSGGSLNPHGAARAEVYLS-NH2 [Sulforhodamine B-(GGS)3MLL4Win-NH2] displayed a koff of 0.041 s⁻¹ and a kon of 210000 M⁻¹ s⁻¹.
